From the DeepSol protein solubility set

Experiment: soluble on expression in E. coli; label from the status in PepcDB or PDB records

Row | Sequence | soluble on expression in E. coli
1 | MNEYAPLRLHVPEPTGRPGCQTDFSYLRLNDAGQARKPPVDVDAADTADLSYSLVRVLDEQGDAQGPWAEDIDPQILRQGMRAMLKTRIFDSRMVVAQRQKKMSFYMQSLGEEAIGSGQALALNRTDMCFPTYRQQSILMARDVSLVEMICQLLSNERDPLKGRQLPIMYSVREAGFFTISGNLATQFVQAVGWAMASAIKGDTKIASAWIGDGATAESDFHTALTFAHVYRAPVILNVVNNQWAISTFQAIAGGESTTFAGRGVGCGIASLRVDGNDFVAVYAASRWAAERARRGLGPSLIEWVTYRAGPHSTSDDPSKYRPADDWSHFPLGDPIARLKQHLIKIGHWSEEEHQATTAEFEAAVIAAQKEAEQYGTLANGHIPSAASMFEDVYKEMPDHLRRQRQELGV | soluble
2 | MRLEFSIYRYNPDVDDAPRMQDYTLEADEGRDMMLLDALIQLKEKDPSLSFRRSCREGVCGSDGLNMNGKNGLACITPISALNQPGKKIVIRPLPGLPVIRDLVVDMGQFYAQYEKIKPYLLNNGQNPPAREHLQMPEQREKLDGLYECILCACCSTSCPSFWWNPDKFIGPAGLLAAYRFLIDSRDTETDSRLDGLSDAFSVFRCHSIMNCVSVCPKGLNPTRAIGHIKSMLLQRNA | soluble
3 | MHLRLRTKNGLITITVSQQCTIRELSEEIERKTGIEVAKQKILYGFPQRELRADADKPVESVLQSGDSLTVDKLSAETEQERTVESSPASTENAYVRRKVPDDNSCLFHAICYVFRSGSVAQLRHIISETVRLNPDLYTEAFLGKSNHEYSRWILLPETWGGAIELSILSKYFQTEISVFDIQTLRLDRYGEAENYEERVFLLYDGIHYDPIARAFLGASREYDVTVFKIWDNEALVGAKSVAEEANKNRQYTDLASFTLMCRNCGAKLKGETSAVEHAKQTGHTNFTEA | not soluble
4 | MQYKGQGFQPVAEKSAIAHAKKYREEYEKLGEQFFKDNFSLNVKATNVVGSGDGVEVYVHCDDHDIVFNASIPFDKEAIHEEGSMRSNDNGDTMSNMVGTVLSGFEYKAQKEKYDNLTKFFKDNEEKYQYTGFTKEAIHKTQNVGYQNEYYYLAGNVTNINNYRKYYEPLIKKDSKNFKEGMKKANEATNFKAKIEVVSTLFSTKSDFTKNNSKKDLLFLSDDLYHYKEKPENTNITLQLSEPKINSTRAFYDANNPLEYGVHKHELEHHHHHH | not soluble
5 | MTLDLFAPQPKTNLLPYDGDVEDYGCFISTAEAEQYFQYFLKHLAWRHDEARLYGKHFITPRQVAWYGDDHYRYAYSGIMRDSLPWDPQLLILKQQIEQTLAERFNSCLANLYQEGTQGMAWHSDGDMSLAKQTTIASLSLGATRKFCFRHLRTKEKIEMQLQSGQLIVMRGETQQHWQHAIMKSQKVIHPRINLTFRQFLLLEHHHHHH | not soluble
6 | MGAQVSTQKTGAHETGLRASGNSIIHYTNINYYKDAASNSANRQDFTQDPGKFTEPVKDIMVKSLPALN | soluble
7 | MTCWLRGVTATFGRPAEWPGYLSHLCGRSAAMDLGPMRKSYRGDREAFEETHLTSLDPVKQFAAWFEEAVQCPDIGEANAMCLATCTRDGKPSARMLLLKGFGKDGFRFFTNFESRKGKELDSNPFASLVFYWEPLNRQVRVEGPVKKLPEEEAECYFHSRPKSSQIGAVVSHQSSVIPDREYLRKKNEELEQLYQDQEVPKPKSWGGYVLYPQVMEFWQGQTNRLHDRIVFRRGLPTGDSPLGPMTHRGEEDWLYERLAP | soluble
8 | MSSNYIYRTAEKSDFDRILKFLAEHFYHEEPSIRASKIALEEWLPIFGEMTTSSLKLPISTVVTTEDGENIVAVLLNSMWSREEDEERMKHGNGKGDHDTSGYSEALQRFMTIVQKCHDEFWNLAPSDVNLVVYREISSVGKPWQRQGIATKMLSRNMSAARLHNVDGIVSATSSFANQTLLAKNGFQCLKEFPYSGIVSSNGDKLVETDDGSHGMRINFKRIEKSGNGPCEMEPPKSATFQNVATSVSS | soluble
9 | GIDPFTTARKSTGGKAPRKGGMVVKKRKLATEAGGSDERPKYLPGKHPKNQEKTPHVDYNAPLNPKSELFLDDWHIPKFNRFISFTLDVLIDKYKDIFKDFIKLPSRKFHPQYYYKIQQPMSINEIKSRDYEYEDGPSNFLLDVELLTKNCQAYNEYDSLIVKNSMQVVMLIEFEVLKAKNLKRNYLINSEVKAKLLHYLNKLVDATEKKINQALLGASSPKNLDDKVKLSEPFMELVDKDELPEYYEIVHSPMALSIVKQNLEIGQYSKIYDFIIDMLLVFQNAHIFNDPSALIYKDATTLTNYFNYLIQKEFFPELQDLNERGEINLEFDKFEFENYLAIGGGGPAAAGALAISALDND | soluble
10 | MEQQLKDIISACDLAIQNEDFDTLMNYYSEDAVLVVKPGMIARGKEEIKKAFITIANYFNHHIVPTQGKMILLEAGDTVLVLSQTLLDSDKKDSEYAMERRATYVFKKNAQGEWLCVIDNSYGTDLIGVMAGDPLEHHHHHH | soluble
11 | MSEITASRPEVVNGHTDVICSTSIRHILAVRKSTLLQIDTLIRQLAEVSAMTESIRGKTALDWAMKQDFRCGCWLMEKPETAMKAITRNLDRELWRDLMQRSGMLSLMDAQTRDTWYRSLEYDNFPEISEANILSTFEQLHQNKDEVFERGVINVFKGLSWDYKTNSPCKFGSKIIVNNLVRWDRWGFHLITGQQTDRLVDLERMLHLFSGKPIPDNRENITIRLDGHIQSVQGKERYEDEMFIIKYFKKGSAHITFKRLELIDRINDIIARYFPSVLSA | not soluble
12 | MLILGLVISCGGSKDITLPNKNVKIEGDVLTFKGKPFTGNIKMNLADKMDGYAGAMSFKDGHLDGLTDLKNDKENQQVKFTVVDGKFDGELIMKDAKQRTDIVLDIKNGAIVKYLADVQGAYKYDLSFVDNLANGTMEAQGQKFEFKDGIAKGPQGQELKLTLDPESGDLTMEAMVNGKVAGKQTIPNVLTPQYLETFIFRAVTMTNR | not soluble
13 | AIASSAIERKSLDPSEEPVDEVLQIPPSLLTCGGCQQNIGDRYFLKAIDQYWHEDCLSCDLCGCRLGEVGRRLYYKLGRKLCRRDYLRLFGQDGLCASCDKRIRAYEMTMRVKDKVYHLECFKCAACQKHFCVGDRYLLINSDIVCEQDIYEWTKINGMI | soluble
14 | MGSDKIHHHHHHMWFKNLKIYRLSAPWALNGDQLEECLARFAYQGGNNLEMQSLGWISPRENGLLAHTLNGQILLTLRAEKKLLPTTVVNQVAKARAQEIEEQQGYKPGRKQMKEIKERVTDELLPKAFSIYRDTRVWIDTVNHWLVIDAAASAKADEVIGLLVKTIDPLPLDNLYVEQSPAAAMTGWLAADEAPANFSIDQDTELRASGESRAAIRYVKHSIDVDDVRRHIQSGKQCTRLAMTWADRVSFVLTESLDVKRVAPLDVLKENPDAATQNDDEKFDSDMTLMTGEVAKLLAELVDSLGGEKRV | not soluble
15 | SNAMSQEAFENKLYANLEAVIDPELGVDIVNLGLVYDVTADENNNAVITMTMTSIGCPMAGQIVSDVKKVLSTNVPEVNEIEVNVVWNPPWSKERMSRMAKIALGIRD | soluble
16 | MNFLRKIVKNCKDEEIPKPGTPSAPPDDDDLWMPPPEYVPLTQIKGKENVRNFCINGEIKICSPNGYSFRILRHILKSFDNVYSGNRRLIGVVKVVIGLVLSASPVPEGMNWVYKLRRTLIFQWAESHGPLEGEELEYSQEITWDDEAEFVSLQIRVSAKQCHIQGRLWCINMNSKACQLWADMGLKTQQSQEDENTSLLLE | soluble
17 | MTTSIWKKLVTAVRGGASEVGESIADANAIRILDQEIRDADNALVKARDGLITIKAKHKLSAQRLEEHATSIANWEGRAMQALNKGEEALAVECASKIAEIEALRDQEQELADQFGKQVSLLQEQVIKAESRIKSLKQQVEMAKARETVQRARVATATATGGASGSVETAVGSLARLKQRQDEQDAKLEAAEELASQSSGSDLERRLQDAGIGAKSGGAQDVLARLKAKNQTPAQLEHHHHHH | not soluble
